In article PMC10107544, “Selecting Better Biocatalysts by Complementing Recoded Bacteria” (Angewandte Chemie (International Ed. in English), 2022):

Tests used:
Format in all cases: biochemical, Sinorhizobium meliloti
Details in all cases: free enzyme; kinetic pH and metal not given
[1] = substrate: NC(=O)N[C@@H](Cc1ccc(O)c(I)c1)C(=O)O; test: saturation kinetics, Michaelis-Menten fit
Source text: (§1) saturation kinetics, Michaelis-Menten fit on […]

[2] = substrate: NC(=O)N[C@@H](Cc1ccc(O)c([N+](=O)[O-])c1)C(=O)O; test: HPLC saturation kinetics, Michaelis-Menten fit
Source text: HPLC saturation kinetics, Michaelis-Menten fit on […]

[3] = substrate: NC(=O)N[C@@H](Cc1ccc(O)c([N+](=O)[O-])c1)C(=O)O; test: saturation kinetics, Michaelis-Menten fit
Source text: as §1

Protein	Km [1]	kcat [1]	kcat/Km [1]	Km [2]	kcat [2]	kcat/Km [2]	Km [3]	kcat [3]	kcat/Km [3]
SmLcar (Sinorhizobium meliloti) (protein, recombinant, produced from plasmid and purified; bivalent metal-dependent) MAAPGENRRVNADRLWDSLMEMAKIGPGVAGGNNRQTLTDADGEGRRLFQSWCEEAGLSMGVDKMGTMFLTRPGTDPDALPVHIGSHLDTQPTGGKFDGVLGVLSGLEAVRTMNDLGIKTKHPIVVTNWTNEEGARFAPAMLASGVFAGVHTLEYAYARKDPEGKSFGDELKRIGWLGDEEVGARKMHAYFEYHIEQGPILEAENKQIGVVTHCQGLWWLEFTLTGREAHTGSTPMDMRVNAGLAMARILEMVQTVAMENQPGAVGGVGQMFFSPNSRNVLPGKVVFTVDIRSPDQAKLDGMRARIEAEAPKICERLGVGCSIEAVGHFDPVTFDPKLVETVRGAAEKLGYSHMNLVSGAGHDACWAAKVAPTTMIMCPCVGGLSHNEAEDISREWAAAGADVLFHAVLETAEIVE	13.8 (7.91) mM	6.92e-05 ± 2.09e-05 s⁻¹	0.005 ± 0.00315 M⁻¹ s⁻¹	2.98 (0.87) mM	0.000105 ± 1.01e-05 s⁻¹	0.0354 ± 0.00977 M⁻¹ s⁻¹	–	–	–
SmLcar (Sinorhizobium meliloti; F329Y/L217G) (protein, recombinant, produced from plasmid and purified; bivalent metal-dependent) MAAPGENRRVNADRLWDSLMEMAKIGPGVAGGNNRQTLTDADGEGRRLFQSWCEEAGLSMGVDKMGTMFLTRPGTDPDALPVHIGSHLDTQPTGGKFDGVLGVLSGLEAVRTMNDLGIKTKHPIVVTNWTNEEGARFAPAMLASGVFAGVHTLEYAYARKDPEGKSFGDELKRIGWLGDEEVGARKMHAYFEYHIEQGPILEAENKQIGVVTHCQGGWWLEFTLTGREAHTGSTPMDMRVNAGLAMARILEMVQTVAMENQPGAVGGVGQMFFSPNSRNVLPGKVVFTVDIRSPDQAKLDGMRARIEAEAPKICERLGVGCSIEAVGHYDPVTFDPKLVETVRGAAEKLGYSHMNLVSGAGHDACWAAKVAPTTMIMCPCVGGLSHNEAEDISREWAAAGADVLFHAVLETAEIVE	1.45 (0.16) mM	0.231 s⁻¹	159 M⁻¹ s⁻¹	–	–	–	5.30 (0.88) mM	0.78 s⁻¹	148 M⁻¹ s⁻¹
SmLcar (Sinorhizobium meliloti; F329C/L217G) (protein, recombinant, produced from plasmid and purified; bivalent metal-dependent) MAAPGENRRVNADRLWDSLMEMAKIGPGVAGGNNRQTLTDADGEGRRLFQSWCEEAGLSMGVDKMGTMFLTRPGTDPDALPVHIGSHLDTQPTGGKFDGVLGVLSGLEAVRTMNDLGIKTKHPIVVTNWTNEEGARFAPAMLASGVFAGVHTLEYAYARKDPEGKSFGDELKRIGWLGDEEVGARKMHAYFEYHIEQGPILEAENKQIGVVTHCQGGWWLEFTLTGREAHTGSTPMDMRVNAGLAMARILEMVQTVAMENQPGAVGGVGQMFFSPNSRNVLPGKVVFTVDIRSPDQAKLDGMRARIEAEAPKICERLGVGCSIEAVGHCDPVTFDPKLVETVRGAAEKLGYSHMNLVSGAGHDACWAAKVAPTTMIMCPCVGGLSHNEAEDISREWAAAGADVLFHAVLETAEIVE	5.71 (1.14) mM	4.84 s⁻¹	849 M⁻¹ s⁻¹	–	–	–	2.92 (0.95) mM	0.32 s⁻¹	108 M⁻¹ s⁻¹
SmLcar (Sinorhizobium meliloti; L217G) (protein, recombinant, produced from plasmid and purified; bivalent metal-dependent) MAAPGENRRVNADRLWDSLMEMAKIGPGVAGGNNRQTLTDADGEGRRLFQSWCEEAGLSMGVDKMGTMFLTRPGTDPDALPVHIGSHLDTQPTGGKFDGVLGVLSGLEAVRTMNDLGIKTKHPIVVTNWTNEEGARFAPAMLASGVFAGVHTLEYAYARKDPEGKSFGDELKRIGWLGDEEVGARKMHAYFEYHIEQGPILEAENKQIGVVTHCQGGWWLEFTLTGREAHTGSTPMDMRVNAGLAMARILEMVQTVAMENQPGAVGGVGQMFFSPNSRNVLPGKVVFTVDIRSPDQAKLDGMRARIEAEAPKICERLGVGCSIEAVGHFDPVTFDPKLVETVRGAAEKLGYSHMNLVSGAGHDACWAAKVAPTTMIMCPCVGGLSHNEAEDISREWAAAGADVLFHAVLETAEIVE	2.58 (0.46) mM	0.232 s⁻¹	89.9 M⁻¹ s⁻¹	–	–	–	8.91 (2.81) mM	0.0929 ± 0.0136 s⁻¹	10.4 M⁻¹ s⁻¹
